Assay results: patent US20060051295A1, “Estrogen receptor interaction with a transcription factor” (priority 2002, published 2006)

Key:
[1] = molecular target: T1, ERα (Homo sapiens, UniProt P03372); test: Stably transfected ECV304/T24-ERα-ELAM-HMG and -VCAM3 clones, luciferase activity; details: stable ECV304/T24-ERα clone, IL1 induced
T1 sequence (P03372 1-595): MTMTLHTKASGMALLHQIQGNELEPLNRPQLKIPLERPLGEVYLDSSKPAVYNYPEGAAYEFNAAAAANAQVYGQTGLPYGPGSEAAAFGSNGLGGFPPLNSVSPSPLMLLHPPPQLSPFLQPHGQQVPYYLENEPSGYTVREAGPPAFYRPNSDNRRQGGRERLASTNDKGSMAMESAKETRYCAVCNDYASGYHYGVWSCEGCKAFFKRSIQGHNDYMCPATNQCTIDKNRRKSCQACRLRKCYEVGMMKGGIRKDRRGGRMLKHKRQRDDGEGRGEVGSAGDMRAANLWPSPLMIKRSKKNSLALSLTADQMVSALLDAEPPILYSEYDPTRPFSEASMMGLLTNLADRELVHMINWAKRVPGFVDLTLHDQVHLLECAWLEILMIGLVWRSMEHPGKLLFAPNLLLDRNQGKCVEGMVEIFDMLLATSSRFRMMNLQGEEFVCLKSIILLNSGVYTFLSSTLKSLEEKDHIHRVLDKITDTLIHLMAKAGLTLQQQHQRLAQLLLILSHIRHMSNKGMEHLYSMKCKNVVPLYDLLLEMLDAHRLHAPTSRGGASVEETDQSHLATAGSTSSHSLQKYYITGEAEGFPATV

[2] = molecular target: T1, ERα; test: Transrepression of IL-1β induced NF-κB responsive promoter-reporters, U-2 OS transiently transfected with ERα; assay type: cell-based; set-up: expressed in transfected cells; details: ER alpha transfected, IL-1 induced
Excerpt: pKCRE-ERα, pKCRE-ERβ and pNGV1-GR contain the human wild-type estrogen receptor α (ERα), ERβ or GR respectively under control of the SV40 promoter. The pCMV4-c-Rel expression vector was produced by cloning of the coding region of c-Rel into the pCMV4 vector (Andersson et al., 1989). pGL3-ELAM, pGL3-VCAM and pGL3-ICAM have been constructed based on PCR using the sequences as outlined in appendix 1. The luciferase reporter plasmid 3*NF-κB-TK was constructed by inserting three repeats of the NF-κB binding site from the ICAM promoter (van de Stolpe et al.; J. Biol Chem. 269: 6185-6192. 1994) in front of the herpes simplex virus thymidine kinase (HSV-TK) promoter. The TK promoter was cloned into the Bgl II-site of pGL3-basic (Promega). The triple repeat of NF-κB binding sites was constructed by annealing the oligonucleotide primers 5′-[…]-3′ and 5′-[…]-3′ followed by PRC amplification and subcloning in the pCR™2.1 vector. The insert was excised using HindIII, blunted with Klenow DNA polymerase and ligated into the SmaI site of pGL3-tk-luc. 4xERE-TATA Luc (plasmid nr. 460) contains four repeats of an estrogen responsive element followed by a TATA box and a luciferase gene. The pSV-β-Galactosidase (pSVβ) control vector (Promega) served as a positive control vector for monitoring transfection efficiencies of mammalian cells. The SV40 early promoter and enhancer drive transcription of the LacZ gene which encodes the β-Galactosidase enzyme. The yeast 2-hybrid constructs pGAD424-ERα, pGAD424-ERαdAB and pGAD424-ERβ were constructed by cloning respectively the human ERα, the ERα without the AB domain and the human ERβ cDNA in pGAD424. pGAD424-ERα LBD was constructed by cloning the LBD of ERα, obtained by PCR, in the EcoRI and SalI sites of pGAD424 vector. pGBT9-c-Rel was constructed by cloning the c-Rel fragment, obtained by PCR on pCMV4-c-Rel in the EcoRI and BamHI sites of pGBT9. The p65/RelA cDNA was obtained by PCR on the pCMV4-p65.
For transient transfections, cells were seeded in 6-well plates (2.10^5 cells/well). After two or three days the cells were transfected with reporter, expression vectors and β-galactosidase control vector. Two different experimental settings were used. For testing transrepression of IL-1β induced promoter activity, cells were transfected with 1 μg reporter construct, 1 μg expression vector (containing either ERα, ERβ or GR), and 0.25 μg of β-galactosidase control plasmid.

[3] = molecular target: T1, ERα; test: NF-κB-responsive reporters in ECV304-ERα cells, IL-1 induced; assay type: cell-based; set-up: expressed in transfected cells; details: ECV304-ERα cells (A)
Excerpt: This example describes an assay, based on the E-selectin or VCAM promoter in combination with ERα in the T24/ECV cell line. Note that for the ER/NF-κB transrepression assay the ECV304 cell line was used, which was believed to be the only endothelial cell line available that was suitable for producing stable ERα expressing clones. At a later stage ATCC reported that the ECV304 cells were no endothelial cells but, instead, were T24 bladder carcinoma cells. In order to enhance the cytokine induction and amount of repression by estrogens, multiple copies of NF-κB responsive regions of the E-Selectin and VCAM promoters were used to construct new reporters named ELAM1a, ELAM2, ELAM-HMG, VCAM1-2, VCAM2, and VCAM3 (for reporter details see appendix 1).
ECV304-ERα cells stably express ERα and endogenous c-Rel, whereas COS cells were transiently transfected with ERα, and, where indicated, c-Rel. Both cell types were co-transfected with the indicated E-selectin (ELAM) or VCAM promoter derived reporters.
Human osteosarcoma U-2 OS (HTB-96), monkey kidney COS-1 (CRL-1650) and human ECV304 (CRL-1998) cells have been obtained from ATCC (American Type Culture collection). ECV304 cells were sold by ATCC as human endothelial cells, however at a later stage ATCC informed us that this cell line was in fact the human bladder epithelial carcinoma cell line T24. Therefore, these cells are called T24/ECV in this report. ECV304/T24(-ERα), U-2 OS and COS-7 cells were grown in a 1:1 mixture of phenol red free Dulbecco's modified medium (DMEM) and Ham's F12 medium (=M505), supplemented with 10% fetal calf serum (FCS). Experiments were performed in M505+10% FCTS (fetal calf serum treated with dextran-coated charcoal to deplete serum from steroid activity).
The six NF-κB responsive reporters pHGL3-ELAM 1a, pHGL3-ELAM 2, pHGL3-ELAM HMG, pHGL3-VCAM 1-2, pHGL3-VCAM 2 and pHGL3-VCAM 3 (plasmid nr. 1921-1926 respectively) were constructed by ligating annealed primers in the Kpn I and Sac I sites of pHGL3-TATA. The primers were based on the NF-κB-RE sequences in the ELAM and the VCAM promoter (see Appendix 1). Several copies of the NF-κB-RE's were cloned in order the gain a higher absolute luciferase signal. The ELAM HMG construct contains a double repeat, while the other constructs contain three NF-κB -RE's. For primer and reporter sequences, see appendix 1.
For transient transfections, cells were seeded in 6-well plates (2.10^5 cells/well). After two or three days the cells were transfected with reporter, expression vectors and β-galactosidase control vector. Two different experimental settings were used. For testing transrepression of IL-1β induced promoter activity, cells were transfected with 1 μg reporter construct, 1 μg expression vector (containing either ERα, ERβ or GR), and 0.25 μg of β-galactosidase control plasmid. For testing transrepression in combination with c-Rel or ReLA overexpression, cells were transfected with 1 μg reporter construct, 1 μg expression vector (containing either ERα, ERβ or GR) and 0.1 or 1.0 μg expression vector containing c-Rel or RelA and 0.25 μg of β-galactosidase control vector. Equivalent amounts of DNA were obtained by adding the appropriate expression vector that lacks an insert. Transient transfection was performed using lipofectin reagent (Life Technologies). […] The transfected cells were incubated overnight with test compounds prior to cell lysis. Measurement of luciferase and P-galactosidase activity were performed using respectively the luciferase assay system (Promega) and Galacto-light plus (Tropix) according to the manufacturers' protocols and measured on the Victor 1420 multilabel counter, Wallac.

luciferase activity, ELAM-HMG clone 2B8 [1]: 8410 | luciferase activity, ELAM-HMG clone 2F4 [1]: 1566 | luciferase activity, VCAM3 clone 3A10 [1]: 3907 | luciferase activity, VCAM3 clone 4B6 [1]: 2122 | luciferase activity, 3*NFkB-reporter [2]: 1836839 | luciferase activity, ELAM+ reporter [2]: 99757 | luciferase activity, ICAM reporter [2]: 908172 | luciferase activity, VCAM reporter [2]: 30296 | luciferase activity, ELAM1a reporter [3]: 1818 cps | luciferase activity, ELAM2 reporter [3]: 39383 cps | luciferase activity, ELAM− reporter [3]: 160167 cps | luciferase activity, VCAM1-2 reporter [3]: 3741 cps | luciferase activity, VCAM2 reporter [3]: 19464 cps | luciferase activity, VCAM3 reporter [3]: 22767 cps | luciferase activity, VCAM reporter [3]: 3099 cps
Substance: IL-1: cytokine used to induce NF-κB responsive reporter activity
